Reference: the supplement of paper PMC10567573

B1: ADD1 (parent)
chain: FASDGDSGTCSPLRHSFQKQQREK
B2: FOXJ1 (parent)
chain: SAIYKWITDNFCYFRHADPTWQNS

Variants of: B1
Experiment: protein stability index of a GFP-peptide fusion (GPS, HEK-293T) (PSI 1-6); higher = more stable
Settings: c terminus: a fixed tail appended
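Note: lentivirally expressed fusions sorted by FACS into six bins by GFP to DsRed ratio, PSI derived from sequencing read proportions per bin multiplied by bin number.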

Row | Variant | protein stability index
1 | D4H | 3.08
2 | D4Q | 3.14
3 | D4A | 2.14
4 | D4G | 2.07
5 | D4L | 3.48
6 | D4P | 4.26
7 | D4K | 2.51
8 | D4F | 2.41
9 | D4V | 2.44
10 | L13M | 4.02
11 | L13C | 4.25
12 | L13Y | 2.13
13 | L13D | 4.72
14 | L13H | 5.09
15 | L13I | 3.97
16 | L13S | 4.55
17 | L13V | 5
18 | L13N | 4.26
19 | Q21K | 3.75
20 | Q21Y | 3.17
21 | Q21T | 3.99
22 | Q21D | 2.81
23 | Q21V | 3.06
24 | D6I | 1.92

Row | Variant | protein stability index
25 | D6A | 2.41
26 | D6V | 3.13
27 | D6P | 3.34
28 | D6E | 3.98
29 | D6G | 3.31
30 | D6N | 3.18
31 | D6R | 3.44
32 | D6W | 3.8
33 | Q20C | 2.97
34 | Q20F | 2.8
35 | Q20W | 3.22
36 | Q20V | 3.71
37 | Q20K | 3.96
38 | Q20N | 3.65
39 | Q20A | 4.18
40 | Q20S | 4.55
41 | Q20Y | 2.65
42 | Q20M | 3.07
43 | A2G | 4.11
44 | A2M | 3.86
45 | A2C | 3.54
46 | A2K | 4.66
47 | A2I | 2.84
48 | A2P | 4.27

Row | Variant | protein stability index
49 | A2D | 5.17
50 | A2F | 4.6
51 | A2Y | 4.33
52 | A2E | 5.18
53 | A2Q | 3.61
54 | T9M | 2.4
55 | T9Y | 2.16
56 | T9W | 3.71
57 | T9H | 3.45
58 | T9F | 1.64
59 | T9Q | 4.04
60 | T9R | 3.33
61 | T9V | 3.31
62 | Q18N | 4
63 | Q18M | 3.13
64 | Q18I | 3.33
65 | Q18L | 3.73
66 | Q18G | 3.33
67 | Q18F | 3.16
68 | Q18S | 3.52
69 | Q18E | 3.88
70 | K19I | 3.17
71 | K19W | 1.8
72 | K19A | 2.85

Row | Variant | protein stability index
73 | K19D | 3.61
74 | K19R | 3.19
75 | R22F | 3.63
76 | R22E | 4.23
77 | R22P | 3.57
78 | R22Y | 4.09
79 | R22I | 3.68
80 | R22D | 4.51
81 | K24H | 3.25
82 | K24C | 3.41
83 | K24E | 4.01
84 | K24Q | 3.82
85 | K24D | 3.83
86 | K24I | 3.17
87 | K24Y | 2.83
88 | G8I | 3.15
89 | G8E | 3.92
90 | G8F | 1.44
91 | G8Q | 3.7
92 | G8R | 3.98
93 | G8P | 4.47
94 | G8Y | 2.5
95 | S16P | 2.28
96 | S16I | 1.99

Row | Variant | protein stability index
97 | S16N | 4.35
98 | S16Y | 3.88
99 | S16A | 3.52
100 | S16G | 3.54
101 | S16M | 2.46
102 | S16V | 2.31
103 | S7C | 2.96
104 | S7Q | 3.76
105 | S7K | 3.69
106 | S7V | 1.49
107 | S7W | 2.06
108 | S7G | 3.46
109 | S7L | 2.11
110 | S11R | 4.39
111 | S11L | 3.94
112 | S11Q | 4.25
113 | S11Y | 3.92
114 | S11F | 3.17
115 | S11M | 3.75
116 | S11D | 4.04
117 | S11W | 2.17
118 | S11C | 3.16
119 | S11G | 4.35
120 | S11I | 3.79

Row | Variant | protein stability index
121 | S11T | 4.53
122 | P12A | 4.76
123 | P12N | 4.95
124 | P12M | 4.39
125 | P12H | 3.91
126 | P12S | 3.67
127 | P12R | 4.6
128 | P12Q | 4.79
129 | P12K | 3.3
130 | G5A | 4.17
131 | G5H | 3.43
132 | G5E | 4.74
133 | G5V | 3.94
134 | G5T | 4.37
135 | G5S | 4.17
136 | F17I | 3.87
137 | F17R | 4.1
138 | F17M | 3.95
139 | F17T | 3.46
140 | F17W | 3.72
141 | F17Q | 4.52
142 | F17Y | 3.79
143 | F17H | 3.65
144 | H15N | 4.41

Row | Variant | protein stability index
145 | H15V | 2.93
146 | H15Y | 3.44
147 | H15L | 3.21
148 | H15C | 2.62
149 | H15P | 4.01
150 | H15A | 3.83
151 | H15S | 4.22
152 | C10N | 5.17
153 | C10G | 4.49
154 | C10D | 4.68
155 | C10R | 4.07
156 | C10I | 4.24
157 | C10H | 4.01
158 | C10T | 4.44
159 | C10S | 4.78
160 | C10V | 3.85
161 | S3H | 4.05
162 | S3Q | 4.5
163 | S3F | 1.92
164 | S3T | 3.99
165 | S3K | 3.75
166 | S3Y | 1.93
167 | F1H | 5.18
168 | F1E | 5.62

Row | Variant | protein stability index
169 | F1W | 5.13
170 | F1K | 4.22
171 | E23Y | 3.25
172 | E23A | 3.7
173 | E23K | 4.34
174 | E23I | 2.76
175 | E23G | 3.21
176 | E23H | 3.66
177 | E23T | 3.67
178 | R14H | 3.98
179 | R14S | 4.45
180 | R14V | 3.97
181 | R14A | 4.18
182 | R14D | 4.75
183 | R14W | 4.02
184 | R14C | 3.52
185 | R14T | 4.8
186 | R14L | 3.66

Variants of: B2
Experiment: as above
Settings: c terminus: a fixed tail appended

Row | Variant | protein stability index
187 | P19K | 3.4
188 | P19R | 3.65
189 | P19I | 3.63
190 | P19Q | 3.21
191 | P19C | 2.7
192 | P19N | 2.77
193 | P19A | 3.17
194 | P19E | 3.59
195 | P19G | 2.04
196 | P19F | 4.12
197 | P19V | 3.02
198 | P19M | 4.18
199 | P19L | 1.54
200 | P19D | 1.69
201 | P19T | 4.32
202 | P19W | 2.35
203 | P19S | 2.63
204 | S24P | 3.85
205 | S24F | 3.32
206 | S24T | 2.96
207 | S24H | 2.34
208 | S24M | 2.55
209 | S24W | 2.37
210 | S24D | 4.48
211 | S24R | 2.43

Row | Variant | protein stability index
212 | S24K | 2.17
213 | S24E | 2.97
214 | S24N | 3.76
215 | R15M | 2.66
216 | R15H | 5.96
217 | R15S | 2.76
218 | R15L | 2.95
219 | R15P | 2.53
220 | R15N | 3.46
221 | R15C | 3.16
222 | R15G | 3.31
223 | R15W | 2.97
224 | R15D | 2.25
225 | R15Y | 2.33
226 | R15E | 4.29
227 | R15A | 1.81
228 | R15T | 1.69
229 | R15I | 2.32
230 | R15F | 2.57
231 | W21P | 1.99
232 | W21C | 2.94
233 | W21G | 2.24
234 | W21F | 1.85
235 | W21N | 3.38
236 | W21K | 3.58

Row | Variant | protein stability index
237 | W21V | 3.94
238 | W21I | 3.5
239 | W21A | 3.28
240 | W21Q | 2.9
241 | W21D | 2.94
242 | W21T | 4.47
243 | W21H | 2.11
244 | W21R | 2.27
245 | W21M | 3.42
246 | W21E | 3.54
247 | W21S | 1.61
248 | Q22P | 3.76
249 | Q22S | 4.33
250 | Q22N | 4.82
251 | Q22D | 2.56
252 | Q22M | 3.06
253 | Q22E | 2.19
254 | Q22F | 3.37
255 | Q22G | 2.93
256 | Q22H | 3.75
257 | Q22W | 1.86
258 | Q22C | 3.38
259 | F14Y | 2.97
260 | F14W | 2.73
261 | T20A | 2.54

Row | Variant | protein stability index
262 | T20F | 1.78
263 | T20L | 2.08
264 | T20K | 2.23
265 | T20P | 3.38
266 | T20R | 3.92
267 | T20Y | 2.55
268 | T20S | 3.35
269 | T20I | 2.42
270 | T20W | 4.37
271 | T20C | 3
272 | T20D | 2.67
273 | N23K | 2.13
274 | N23W | 3.47
275 | N23C | 2.97
276 | N23Y | 3.52
277 | N23R | 3.24
278 | N23M | 2.75
279 | N23V | 2.39
280 | N23T | 3.31
281 | N23D | 3.65
282 | N23A | 2.99
283 | N23P | 3.02
284 | N23H | 4.01
285 | N23G | 4.27
286 | N23L | 2.46

Row | Variant | protein stability index
287 | N23Q | 3.42
288 | N23S | 2.62
289 | N23E | 3.59
290 | N23F | 3.19
291 | A17R | 3.34
292 | A17M | 4.41
293 | A17C | 3.02
294 | A17T | 2.16
295 | A17P | 3.54
296 | A17K | 2.1
297 | A17Q | 2.7
298 | A17Y | 2.86
299 | A17N | 3.14
300 | A17I | 2.91
301 | A17G | 1.74
302 | A17S | 2.61
303 | A17H | 3.05
304 | D18V | 2.75
305 | D18H | 4.66
306 | D18M | 3.77
307 | D18T | 2.81
308 | D18S | 3.4
309 | D18G | 2.24
310 | D18C | 2.02
311 | D18A | 3.1

Row | Variant | protein stability index
312 | D18Q | 2.86
313 | D18I | 2.82
314 | D18E | 3.65
315 | D18Y | 2.95
316 | D18R | 2.77
317 | D18L | 2.74
318 | D18F | 1.9
319 | D18N | 3.12
320 | D18W | 2.55
321 | H16Y | 2.27
322 | H16L | 4.65
323 | H16R | 5.03
324 | H16K | 1.7
325 | H16D | 2.33
326 | H16W | 1.82
327 | H16F | 3.57
328 | H16P | 3.62
329 | H16G | 2.72
330 | H16I | 1.75
331 | H16A | 2.55
332 | H16Q | 3.32
333 | H16S | 3.5
334 | H16T | 2.32
